# According to the supplement of paper PMC7125110:
# ± gives the standard error. For some assays here: Fewer inactive variants are shown than the library holds.
# B1: glmS ribozyme (parent)
# chain: AUAAAAGCGCCAGAACUACAGAAAUGUAGUUGACGAGGAGGAGGUUUAUCGAAUUUUCGGCGGAUGCCUCCAAA
# Columns and labels:
# Details in all cases: with glucosamine-6-phosphate
# [1] = variants of: B1; assay: kcat; higher = faster cleavage; RNA array
# How it was run: (§1)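 On sequenced MiSeq chips, barcoded ribozyme variants were made in situ by E. coli RNA polymerase and followed at 37 °C through a hybridised Cy3 probe. Glucosamine-6-phosphate was flowed in at 40 μM to 10 mM in HEPES/KCl/Mg(OAc)2 buffer. Exponential fits to normalised per-tile medians gave kobs, and weighted Michaelis–Menten fits gave kcat and KM.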
# [2] = variants of: B1; assay: self-cleavage kobs at 40 uM GlcN6P; higher = faster cleavage; RNA array
# How it was run: as §1
# [3] = variants of: B1; assay: self-cleavage kobs at 640 uM GlcN6P; higher = faster cleavage; RNA array
# How it was run: as §1
# [4] = variants of: B1; assay: self-cleavage kobs at 2500 uM GlcN6P; higher = faster cleavage; RNA array
# How it was run: as §1
# [5] = variants of: B1; assay: self-cleavage kobs at 10000 uM GlcN6P; higher = faster cleavage; RNA array
# How it was run: as §1
# [6] = variants of: B1; assay: KM; higher = weaker cofactor use; RNA array
# How it was run: as §1
# [7] = variants of: B1; assay: self-cleavage kobs at 160 uM GlcN6P; higher = faster cleavage; RNA array
# How it was run: as §1
Variant,kcat [1] [s⁻¹],self-cleavage kobs at 40 uM GlcN6P [2] [s⁻¹],self-cleavage kobs at 640 uM GlcN6P [3] [s⁻¹],self-cleavage kobs at 2500 uM GlcN6P [4] [s⁻¹],self-cleavage kobs at 10000 uM GlcN6P [5] [s⁻¹],KM [6] [µM],self-cleavage kobs at 160 uM GlcN6P [7] [s⁻¹]
U46G U55A,0.0163 ± 0.0061,0.000166 ± 3.9e-05,0.0028 ± 0.00069,0.00456 ± 0.0013,0.0133 ± 0.0027,,
G43U G66A,2.89e-05 ± 1.6e-06,,,,,431 ± 170,
G43U A73U,4.34e-05 ± 8.8e-06,,,4.73e-05 ± 2.1e-05,3.88e-05 ± 1e-05,,
U46A C61A,1.2e-05 ± 3e-07,,,,,1800 ± 100,
U46A U47G,0.00143 ± 0.00056,,0.000647 ± 0.00013,0.00107 ± 0.00027,0.00106 ± 0.00029,,9.77e-05 ± 3.5e-05
U47A G59U,5.89e-05 ± 1.5e-06,,,,,,
A42U U45C,0.000116 ± 1e-05,,2.56e-05 ± 1.1e-05,5.1e-05 ± 1e-05,9.13e-05 ± 1.2e-05,2890 ± 650,
U45C U65C,0.000282 ± 2.2e-05,,,7.8e-05 ± 1.7e-05,0.000167 ± 4.8e-05,6720 ± 780,
G44A U47A,0.000358 ± 9.3e-05,< 1e-05,7.28e-05 ± 1.8e-05,0.000137 ± 2.1e-05,0.00028 ± 4.7e-05,3500 ± 1700,
U45C G66U,0.000814 ± 9.5e-05,,0.000151 ± 3.2e-05,0.000326 ± 8.3e-05,0.000653 ± 8.2e-05,2830 ± 630,4.7e-05 ± 1.5e-05
G44C G66U,< 1e-05,< 1e-05,< 1e-05,,< 1e-05,,< 1e-05
A42U C67G,0.000997 ± 0.00019,6.76e-05 ± 8.5e-06,0.000369 ± 4.9e-05,0.00082 ± 0.00012,0.000939 ± 8.5e-05,853 ± 310,0.000114 ± 2.5e-05
A42U G66U,6.96e-05 ± 7.8e-06,< 1e-05,,4.29e-05 ± 9.1e-06,5.76e-05 ± 6.8e-06,1930 ± 830,
U47A U54A U65C,0.00046 ± 0.0001,,0.000114 ± 2.7e-05,0.000387 ± 0.0001,0.000358 ± 8.9e-05,1750 ± 700,
U47A C71A,0.00195 ± 0.00046,6.97e-05 ± 1.4e-05,0.00117 ± 0.00028,0.00138 ± 0.00038,0.00153 ± 0.00055,1020 ± 320,0.000253 ± 6.8e-05
U45A A53C,0.0341 ± 0.0078,0.000466 ± 8.3e-05,0.00608 ± 0.00081,0.017 ± 0.0047,0.0239 ± 0.0068,3160 ± 860,0.00139 ± 0.00027

Variant,kcat [1] [s⁻¹],self-cleavage kobs at 40 uM GlcN6P [2] [s⁻¹],self-cleavage kobs at 640 uM GlcN6P [3] [s⁻¹],self-cleavage kobs at 2500 uM GlcN6P [4] [s⁻¹],self-cleavage kobs at 10000 uM GlcN6P [5] [s⁻¹],KM [6] [µM],self-cleavage kobs at 160 uM GlcN6P [7] [s⁻¹]
U45A A53U,0.054 ± 0.013,0.00125 ± 0.00017,0.0162 ± 0.0071,0.0671 ± 0.03,0.0432 ± 0.012,1720 ± 500,0.00351 ± 0.0016
U45G U46A,0.00906 ± 0.0029,0.000106 ± 1.7e-05,0.000705 ± 0.00032,,0.00686 ± 0.0011,3870 ± 1700,0.000641 ± 0.00023
U45A A64U,0.000543 ± 3.2e-05,,0.00013 ± 2.1e-05,0.00029 ± 4.4e-05,0.000447 ± 7.9e-05,2140 ± 230,
G44U A53C,0.000114 ± 1.6e-05,,,8.9e-05 ± 1.7e-05,9.5e-05 ± 1.6e-05,1360 ± 610,
G44U A53U,0.000149 ± 2.2e-05,,,0.00015 ± 6e-05,0.000129 ± 1e-05,,
U45A C68U,0.0022 ± 0.00039,7.41e-05 ± 1.2e-05,0.000729 ± 0.00013,0.00176 ± 0.00032,0.00194 ± 0.00027,1080 ± 320,0.000537 ± 0.00012
U46A U69G,7.21e-05 ± 2.1e-05,,0.000107 ± 1.7e-05,8.42e-05 ± 1.3e-05,4.27e-05 ± 1.3e-05,,
U45C C67G,0.0224 ± 0.0058,0.000175 ± 3.4e-05,0.00339 ± 0.0011,0.00755 ± 0.0031,0.0141 ± 0.0026,5680 ± 1800,0.000503 ± 0.00012
G43A C68G,0.000174 ± 1.4e-05,,6.69e-05 ± 1.2e-05,0.000126 ± 2e-05,,993 ± 160,
U45C U56A,0.000778 ± 0.00024,,0.000288 ± 3.9e-05,0.000377 ± 6.1e-05,0.000928 ± 0.00015,,7.1e-05 ± 1.5e-05
A42U G43U A52G,< 1e-05,,,< 1e-05,,,
G44C C68U,8.31e-05 ± 1.5e-05,< 1e-05,,2.65e-05 ± 1.2e-05,,5560 ± 1800,< 1e-05
U46A C68U,0.00114 ± 0.00016,3.61e-05 ± 1.2e-05,0.000233 ± 3.5e-05,0.000743 ± 0.00014,0.0009 ± 8.7e-05,2350 ± 540,6.77e-05 ± 1.1e-05
U45C C67U C68A,4.01e-05 ± 3.3e-06,,,,,533 ± 230,
A42U U69C C71U,0.00168 ± 0.0003,8.14e-05 ± 1.7e-05,0.000956 ± 0.00016,0.00156 ± 0.00038,0.00136 ± 0.00028,700 ± 210,
